Test in all cases: FP
For assay [1], the target named is T1, MDM2 179-193 (Homo sapiens, UniProt Q00987).
T1 chain: {FITC}-RQRKRHK[pS]DSISLSF-NH2

Assay [2] deals with T2, MDM2 179-193 (Homo sapiens, UniProt Q00987).
T2 chain: {FITC}-RQRKRHK[pS]DSISLSF-NH2

The target in assay [3] is T3, MDM2 159-173 (Homo sapiens, UniProt Q00987).
T3 chain: {FITC}-SSRRRAI[pS]ETEENSD-NH2

Assay [4] concerns the target MDM2 159-193 (Homo sapiens, UniProt Q00987, pS186, N-terminal FITC).

Where “and” joins values, the source holds several entries; their conditions need not be identical. Identical values can stand only once. Non-standard residues stand in square brackets, D forms with d. *: point of attachment. FITC = O=C1OC2(c3ccc(O)cc3Oc3cc(O)ccc32)c2ccc(NC(=S)*)cc21; pS = N[C@@H](COP(=O)(O)O)C(=O)O

Sequence of MDM2 159-193 (Q00987 159-193): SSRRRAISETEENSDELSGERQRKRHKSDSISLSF

B1: 14-3-3σ (protein)
chain: MERASLIQKAKLAEQAERYEDMAAFMKGAVEKGEELSCEERNLLSVAYKNVVGGQRAAWRVLSSIEQKSNEEGSEEKGPEVREYREKVETELQGVCDTVLGLLDSHLIKEAGDAESRVFYLKMKGDYYRYLAEVATGDDKKRIIDSARSAYQEAMDISKKEMPPTNPIRLGLALNFSVFHYEIANSPEEAISLAKTTFDEAMADLHTLSEDSYKDSTLIMQLLRDNLTLWTADNAGEEGGEAPQEPQS
B1: the Kd is 24.6 µM and ~26.2 µM in assay [1]; 10.8 µM in assay [2]; more than 115 µM in assay [3]; more than 124 µM in assay [4].

B2: 14-3-3ζ (protein)
chain: MDKNELVQKAKLAEQAERYDDMAACMKSVTEQGAELSNEERNLLSVAYKNVVGARRSSWRVVSSIEQKTEGAEKKQQMAREYREKIETELRDICNDVLSLLEKFLIPNASQAESKVFYLKMKGDYYRYLAEVAAGDDKKGIVDQSQQAYQEAFEISKKEMQPTHPIRLGLALNFSVFYYEILNSPEKACSLAKTAFDEAIAELDTLSEESYKDSTLIMQLLRDNLTLWTSDTQGDEAEAGEGGEN
In assay [1], B2 came in with a Kd of 11.4 µM.

The values are drawn from paper PMC10864208 (2024).
